Measured values taken from US20250051455A1.

Tests used:
[1] = target: recombinant soluble human HLA-G β2M MHC class I complex, monomer (human); test: competition ELISA, one antibody concentration; competitor coated ILT4-Fc
[2] = target: recombinant soluble human HLA-G β2M MHC class I complex, dimer (human); test: as above
[3] = target: recombinant soluble human HLA-G β2M MHC class I complex, trimer (human); test: as above
[4] = target: recombinant soluble human HLA-G β2M MHC class I complex, monomer (human); test: SPR, reference antibody against monomeric wt HLA-G
[5] = target: human HLA-G expressed on cells (JEG3 natural; SKOV3 HLA-G+ and PA-TU-8902 HLA-G+ transfectants) (human) (UniProt P17693); test: flow cytometry, JEG3 cells pre-incubated with antibody (40 µg/ml final); competitor ILT2-Fc chimera
[6] = target: recombinant soluble human HLA-G β2M MHC class I complex, monomer (human); test: competition ELISA, one antibody concentration; competitor coated ILT2-Fc
[7] = target: recombinant soluble human HLA-G β2M MHC class I complex, dimer (human); test: as above
[8] = target: recombinant soluble human HLA-G β2M MHC class I complex, trimer (human); test: as above
[9] = target: modified human HLA-G β2M MHC class I complex (HLA-G specific amino acids replaced by HLA-A consensus amino acids) (human); test: SPR, reference antibody against degrafted HLA-G

% inhibition of ILT4 binding [1] [%] | % inhibition of ILT4 binding [2] [%] | % inhibition of ILT4 binding [3] [%] | Kd [4] [nM] | koff [4] [s⁻¹] | kon [4] [M⁻¹ s⁻¹] | t 1/2 [4] [min] | Inhibition of ILT2 binding to Jeg3 cells [5] [%] | % inhibition of ILT2 binding [6] [%] | % inhibition of ILT2 binding [7] [%] | % inhibition of ILT2 binding [8] [%] | Kd [9] [nM] | koff [9] [s⁻¹] | kon [9] [M⁻¹ s⁻¹] | t 1/2 [9] [min] | Substance
-898 | -20 | 58 | 20 | 0.0037 | 180000 | 3 | -55.8 | 12 | -132 | 3 | – | – | – | – | G233 (antibody)
– | – | – | 12 | 0.00085 | 74000 | 14 | – | – | – | – | 13 | 0.0012 | 89000 | 10 | MEM-G/11 (antibody)
-14 | -44 | -40 | 7.7 | 0.0011 | 150000 | 10 | -27.9 | -442 | 1 | 4 | 300 | 0.036 | 120000 | 0.3 | MEM/G9 (antibody)
